Data published in US11844843 (DYNE THERAPEUTICS, dated 2023).
Substitutions are numbered along the chain they refer to. Numbers in names are those of the source.

T1: recombinant cynomolgus monkey (Macaca fascicularis) TfR1 (cynomolgus monkey (Macaca fascicularis), UniProt Q5RDH6 87-760 (Pongo abelii entry), limits assumed)
T1 construct: Recombinant protein; also called cTfR1; cyTfR1
T1 chain: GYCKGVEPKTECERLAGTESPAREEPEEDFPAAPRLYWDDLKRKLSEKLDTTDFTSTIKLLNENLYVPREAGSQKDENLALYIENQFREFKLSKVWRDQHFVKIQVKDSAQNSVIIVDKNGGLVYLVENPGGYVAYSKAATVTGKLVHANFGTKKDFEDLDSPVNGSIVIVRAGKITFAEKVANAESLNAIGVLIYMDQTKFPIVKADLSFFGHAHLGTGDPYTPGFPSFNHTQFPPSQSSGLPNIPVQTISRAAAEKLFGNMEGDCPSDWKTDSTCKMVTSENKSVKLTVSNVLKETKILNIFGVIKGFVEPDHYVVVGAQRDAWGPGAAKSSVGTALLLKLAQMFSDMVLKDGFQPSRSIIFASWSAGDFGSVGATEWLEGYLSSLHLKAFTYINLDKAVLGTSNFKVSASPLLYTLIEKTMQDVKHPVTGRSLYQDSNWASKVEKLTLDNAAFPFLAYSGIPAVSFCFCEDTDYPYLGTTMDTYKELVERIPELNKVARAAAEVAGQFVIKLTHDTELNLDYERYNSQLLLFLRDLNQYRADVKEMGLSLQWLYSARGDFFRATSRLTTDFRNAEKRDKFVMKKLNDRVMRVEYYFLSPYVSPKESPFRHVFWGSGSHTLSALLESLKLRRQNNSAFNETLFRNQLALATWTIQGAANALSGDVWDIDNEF

B1: conjugate of humanized anti-TfR Fab 3A4 VH3 (N54S)/Vκ4 with DMPK-targeting oligonucleotide ASO300 (Fab, V domains shown)
VH: EVQLVQSGSELKKPGASVKVSCTASGFNIKDDYMYWVRQPPGKGLEWIGWIDPESGDTEYASKFQDRVTVTADTSTNTAYMELSSLRSEDTAVYYCTLWLRRGLDYWGQGTLVTVSS
VL: DIVMTQSPLSLPVTPGEPASISCRSSKSLLHSNGYTYLFWFQQRPGQSPRLLIYRMSNLASGVPDRFSGSGSGTDFTLKISRVEAEDVGVYYCMQHLEYPFTFGGGTKVEIKR
modifications: oligonucleotide ASO300 conjugated to the Fab via linker; residue and chain not stated
notes: also called 3A4 (VH3-N54S/Vk4) conjugate
B2: conjugate of humanized anti-TfR Fab 3A4 VH3 (N54T)/Vκ4 with DMPK-targeting oligonucleotide ASO300 (Fab, V domains shown)
VH: B1 VH with S55T
VL: B1 VL
modifications: oligonucleotide ASO300 conjugated to the Fab via linker; residue and chain not stated
notes: also called 3A4 (VH3-N54T/Vk4) conjugate
B3: conjugate of humanized anti-TfR Fab 3M12 VH4/Vκ3 with DMPK-targeting oligonucleotide ASO300 (Fab, V domains shown)
VH: QVQLQESGPGLVKPSQTLSLTCTVTGYSITSGYYWNWIRQPPGKGLEWIGYITFDGANNYNPSLKNRVSISRDTSKNQFSLKLSSVTAEDTATYYCTRSSYDYDVLDYWGQGTTVTVSS
VL: DIQMTQSPSSLSASVGDRVTITCRASQDISNFLNWYQQKPGQPVKLLIYYTSRLHSGVPSRFSGSGSGTDFTLTISSLQPEDFATYYCQQGHTLPYTFGQGTKLEIKR
modifications: oligonucleotide ASO300 conjugated to the Fab via linker; residue and chain not stated
notes: also called 3M12 (VH4/Vk3) conjugate
B4: conjugate of humanized anti-TfR Fab 3M12 VH3/Vκ2 with DMPK-targeting oligonucleotide ASO300 (Fab, V domains shown)
VH: B3 VH with T23S, I49M
VL: B3 VL with Y87F
modifications: oligonucleotide ASO300 conjugated to the Fab via linker; residue and chain not stated
notes: also called 3M12 (VH3/Vk2) conjugate

Biological target: T2, recombinant human TfR1 (transferrin receptor protein 1) (human, UniProt P02786 89-760)
T2 construct: Recombinant protein in SPR and ELISA; they were assigned to this molecule; also called hTfR1; huTfR1
Assay: ELISA, recombinant TfR1 coated, Fab-ASO300 conjugate (row 'Conjugate binding affinity ELISA')

| EC50 [nM] | Binder |
| --- | --- |
| 2.9 | B1 |
| 2.8 | B2 |
| 1.7 | B3 |
| 2.2 | B4 |

Biological target: T1, recombinant cynomolgus monkey (Macaca …)
Assay: as above

| EC50 [nM] | Binder |
| --- | --- |
| 7.8 | B1 |
| 4.7 | B2 |
| 2.1 | B3 |
| 2.9 | B4 |

Biological target: T2, recombinant human TfR1 (transferrin …)
Assay: ELISA on hTfR1, Fab conjugated to DMPK-targeting oligonucleotide, % normalized RFUs

| EC50 [nM] | Binder |
| --- | --- |
| 1.7 | B3 |
| 2.2 | B4 |

Biological target: T1, recombinant cynomolgus monkey (Macaca …)
Assay: ELISA on cTfR1, Fab conjugated to DMPK-targeting oligonucleotide, % normalized RFUs

| EC50 [nM] | Binder |
| --- | --- |
| 2.1 | B3 |
| 2.9 | B4 |

Biological target: T2, recombinant human TfR1 (transferrin …)
Assay: Table 14, Fab-ASO300 conjugate; method not named

| DMPK oligo conjugate binding [nM] | Binder |
| --- | --- |
| 2.71 | B1 |
| 2.22 | B2 |
| 1.18 | B3 |
| 1.14 | B4 |

Biological target: T1, recombinant cynomolgus monkey (Macaca …)
Assay: Table 14, Fab-ASO300 conjugate; method not named

| DMPK oligo conjugate binding [nM] | Binder |
| --- | --- |
| 4.1 | B1 |
| 5.12 | B2 |
| 1.85 | B3 |
| 2.26 | B4 |

Biological target: T2, recombinant human TfR1 (transferrin …)
Assay: ELISA on hTfR1, Fab conjugated to DMPK-targeting oligonucleotide, % normalized RFUs
Remark: another data set of the same source

| EC50 [nM] | Binder |
| --- | --- |
| 3.6 | B1 |
| 3.3 | B2 |

Biological target: T1, recombinant cynomolgus monkey (Macaca …)
Assay: ELISA on cTfR1, Fab conjugated to DMPK-targeting oligonucleotide, % normalized RFUs
Remark: another data set of the same source

| EC50 [nM] | Binder |
| --- | --- |
| 5.7 | B1 |
| 5.8 | B2 |
